Assay [1] has as its target mutant CSF-1R L301S Y969F (human) (UniProt P07333). Briefly: cell-based or functional assay.
Assay [2] concerns the target T1, full-length wildtype CSF-1R (wt CSF-1R) (human, UniProt P07333 20-972). Briefly: cell-based or functional assay.
For assay [3], the target named is CSF-1R ECD (R&D-Systems 329-MR or in-house subcloned pCMV-presS-HisAvitag-hCSF-1R-ECD) (human) (UniProt P07333). In words: SPR cross-competition, 25 C; second antibody on CSF-1R held by captured Antibody 1; competitor SC-02, clone 2-4A5.
Sequence of CSF-1R ECD (R&D-Systems 329-MR or in-house subcloned pCMV-presS-HisAvitag-hCSF-1R-ECD) (human) (P07333 20-517 limits assumed): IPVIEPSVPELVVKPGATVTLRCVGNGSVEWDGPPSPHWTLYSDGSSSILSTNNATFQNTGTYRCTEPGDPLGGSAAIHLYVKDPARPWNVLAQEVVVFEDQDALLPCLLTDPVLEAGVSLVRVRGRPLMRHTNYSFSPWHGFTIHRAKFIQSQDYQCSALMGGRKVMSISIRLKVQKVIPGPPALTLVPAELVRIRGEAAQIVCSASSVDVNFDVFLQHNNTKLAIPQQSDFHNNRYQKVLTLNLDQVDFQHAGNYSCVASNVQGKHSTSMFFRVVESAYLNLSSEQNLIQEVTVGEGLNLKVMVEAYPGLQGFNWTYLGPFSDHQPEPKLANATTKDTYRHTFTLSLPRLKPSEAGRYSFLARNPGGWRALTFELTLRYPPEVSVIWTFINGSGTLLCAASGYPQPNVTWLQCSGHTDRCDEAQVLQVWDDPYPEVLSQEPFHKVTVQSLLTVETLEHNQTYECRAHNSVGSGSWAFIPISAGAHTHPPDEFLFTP
Assay [4] has the same target. Briefly: SPR cross-competition, 25 C; second antibody on CSF-1R held by captured Antibody 1; competitor <CSF-1R>10H2.2F12.
For assay [5] the target is unchanged. In words: SPR cross-competition, 25 C; second antibody on CSF-1R held by captured Antibody 1; competitor <CSF-1R>9D11.2E8.
Assay [6] addresses huCSF-1R-huFc chimera (soluble extracellular domain) (human) (UniProt P07333). Briefly: competition ELISA: antibody on plate-bound huCSF-1R-huFc, then 3 ng/ml CSF-1. (In general: In an ELISA, binding on a coated surface is turned into a signal by an enzyme label.)
In assay [7] the target is CSF-1R ECD (R&D-Systems 329-MR or in-house subcloned pCMV-presS-HisAvitag-hCSF-1R-ECD) (human) (UniProt P07333). In words: SPR (BIACORE A100), 35 C, antibody captured, CSF-1R ECD in solution. In general terms: Surface plasmon resonance follows binding to a sensor surface in real time, without labels.
The target in assay [8] is T2, CSF-1R ECD (R&D-Systems 329-MR or in-house subcloned pCMV-presS-HisAvitag-hCSF-1R-ECD) (human, UniProt P07333 20-517).
T2 construct: also called CSF-1R (R&D-Systems Cat. No. 329-MR); human CSF-1R Extracellular Domain (comprising domains D1 to D5)
T2 sequence (P07333 20-517 limits assumed): as above
The assay is described as above. Here is the method: CSF-1R ECD (R&D-Systems 329-MR or in-house subcloned pCMV-presS-HisAvitag-hCSF-1R-ECD were added in various concentrations in solution. Association was measured by an CSF-1R-injection of 1.5 minutes at 35° C.; dissociation was measured by washing the chip surface with buffer for 10 minutes at 35° C. Anti CSF-IR SC-02, clone 2-4A5 (Santa Cruz Biotechnology, US; see also Sherr, C. J., et al., Cell 41 (1985) 665-676), which inhibits the ligand-receptor interaction, was used as reference control.

Assay [9] addresses T3, CSF-1R ECD (D1-D3) (human, UniProt P07333 20-296, limits assumed).
T3 construct: also called domains D1 to D3 of the extracellular domain of human CSF-1R
Described as in WO2011070024, Example 10 (method not told here).

Assay [10] addresses T1, full-length wildtype CSF-1R (wt CSF-1R). In words: cell-based or functional assay. This is another data set of the same source.
The target in assay [11] is T4, huCSF-1R-huFc chimera (soluble extracellular domain) (human, UniProt P07333 20-517).
T4 construct: Captured on the plate by anti Fc-gamma; also called huCSF-1R ECDhuFc chimera; not shown: human Fc part
T4 sequence (P07333 20-517, change not shown): as the sequence (P07333 20-517 limits assumed) above
Briefly: competition ELISA: antibody on plate-bound huCSF-1R-huFc, then 3 ng/ml CSF-1. The protocol: At the beginning, plates were coated with […] goat F(ab′)₂ biotinylated anti Fcγ (Jackson ImmunoResearch., Cat. No. 109-006-170) for 1 hour (h).
Thereafter the wells were blocked with PBS supplemented with 0.2% Tween®-20 and 2% BSA (Roche Diagnostics GmbH, DE) for 0.5 h. 75 ng/ml of huCSF-1R-huFc chimera (soluble extracellular domain) was immobilized to plate for 1 h. Then dilutions of purified antibodies in PBS/0.05% Tween20/0.5% BSA were incubated for 1 h. After adding a mixture of 3 ng/ml CSF-1 (Biomol, DE, Cat. No. 60530), 50 ng/ml biotinylated anti CSF-1 clone BAF216 (R&D Systems, UK) and 1:5000 diluted streptavidin HRP (Roche Diagnostics GmbH, DE, Cat. No. 11089153001) for 1 h the plates were washed 6 times with PBST. Anti CSF-IR SC-02, clone 2-4A5 (Santa Cruz Biotechnology, US), which inhibits the ligand-receptor interaction, was used as positive control. Plates were developed with freshly prepared BM Blue® POD substrate solution (BM Blue®:3,3″-5,5″-Tetramethylbenzidine, Roche Diagnostics GmbH, DE, Cat. No. 11484281001) for 30 minutes at RT. Absorbance was measured at 370 nm. […] Anti CSF-IR SC-02, clone 2-4A5 (Santa Cruz Biotechnology, US), which inhibits the ligand-receptor interaction, was used as reference control.

Assay [12] has as its target T1, full-length wildtype CSF-1R (wt CSF-1R). In words: cell-based or functional assay. This is another data set of the same source.

Read-outs that look alike come from different tables or passages of the source. A value given as a limit tells only on which side of the number the result lay.

T1 sequence (P07333 20-972 limits assumed): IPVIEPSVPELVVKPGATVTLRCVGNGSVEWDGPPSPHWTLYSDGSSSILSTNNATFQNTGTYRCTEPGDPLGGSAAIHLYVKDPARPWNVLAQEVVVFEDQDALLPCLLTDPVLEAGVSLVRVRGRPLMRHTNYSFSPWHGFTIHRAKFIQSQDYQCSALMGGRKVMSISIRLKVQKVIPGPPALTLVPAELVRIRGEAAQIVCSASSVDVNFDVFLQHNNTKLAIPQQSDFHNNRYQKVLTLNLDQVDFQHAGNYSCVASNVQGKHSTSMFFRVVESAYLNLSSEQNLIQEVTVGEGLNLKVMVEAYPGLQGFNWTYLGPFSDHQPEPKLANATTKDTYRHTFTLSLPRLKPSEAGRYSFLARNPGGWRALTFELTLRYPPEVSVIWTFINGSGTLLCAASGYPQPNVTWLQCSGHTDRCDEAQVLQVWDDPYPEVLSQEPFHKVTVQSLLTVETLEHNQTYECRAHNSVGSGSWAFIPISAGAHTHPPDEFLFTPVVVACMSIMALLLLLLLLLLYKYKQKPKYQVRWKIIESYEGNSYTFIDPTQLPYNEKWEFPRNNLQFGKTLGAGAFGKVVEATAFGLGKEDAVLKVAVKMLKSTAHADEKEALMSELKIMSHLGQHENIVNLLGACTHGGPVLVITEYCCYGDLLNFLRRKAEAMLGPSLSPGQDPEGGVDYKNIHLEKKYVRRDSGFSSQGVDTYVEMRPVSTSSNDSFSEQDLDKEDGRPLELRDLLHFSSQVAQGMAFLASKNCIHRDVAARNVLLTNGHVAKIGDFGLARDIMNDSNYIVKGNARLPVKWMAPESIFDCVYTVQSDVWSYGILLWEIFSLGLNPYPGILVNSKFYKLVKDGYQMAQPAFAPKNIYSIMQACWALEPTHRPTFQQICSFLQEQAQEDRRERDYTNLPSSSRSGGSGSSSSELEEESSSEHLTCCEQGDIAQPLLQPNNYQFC
Sequence of mutant CSF-1R L301S Y969F (human) (P07333 20-972 L301S/Y969F limits assumed): as the sequence (P07333 20-972 limits assumed) above, with L282S, Y950F counted along it
T3 sequence (P07333 20-296 limits assumed): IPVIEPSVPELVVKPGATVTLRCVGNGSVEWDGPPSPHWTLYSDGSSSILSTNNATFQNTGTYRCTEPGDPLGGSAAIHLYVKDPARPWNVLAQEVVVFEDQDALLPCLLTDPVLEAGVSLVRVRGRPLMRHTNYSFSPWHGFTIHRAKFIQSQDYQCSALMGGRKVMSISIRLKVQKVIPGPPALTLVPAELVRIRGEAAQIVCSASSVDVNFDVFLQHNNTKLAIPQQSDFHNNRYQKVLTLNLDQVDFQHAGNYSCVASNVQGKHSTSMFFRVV
Sequence of huCSF-1R-huFc chimera (soluble extracellular domain) (human) (P07333 20-517, change not shown): as the sequence (P07333 20-517 limits assumed) above

For “goat polyclonal anti-CSF-1R antibody ab10676 (abcam)”, the percentage of inhibition the growth of NIH3T3-mutant CSF-1R L301S Y969F recombinant cells, up to 20 µg/ml in assay [1] was below 0%.

In general, IC50 refers to the concentration needed to halve the response being measured. What is called Kd is a measure of binding affinity in units of concentration. High values mean weaker binding, low ones tighter binding. A word on the koff: it is the rate constant with which the complex falls apart. A high value points to a short-lived complex. The term kon denotes a measure of how fast the partners come together. Read a low kon as slower complex formation. For “Anti CSF-1R SC-02, clone 2-4A5 (Santa Cruz Biotechnology, US) (antibody)”, in assay [1], the % Inhibition of growth of NIH3T3-mutant CSF-1R cells, 10 µg/ml antibody is 34% and the % survival of NIH3T3-mutant CSF-1R cells, 10 µg/ml antibody (CellTiterGlo) was 66%. In [2], this molecule returned a % Inhibition of growth of NIH3T3-wtCSF-1R cells, 10 µg/ml antibody of 38%; a % inhibition of CSF-1 induced growth of BeWo cells, 10 µg/ml antibody concentration of 40%; a % survival of NIH3T3-wtCSF-1R cells, 10 µg/ml antibody (CellTiterGlo) of 62%; an IC50 CSF-1R Phosphorylation (CSF-1-induced, NIH3T3-CSF-1R cells, ELISA of lysate) of 0.412 mg/L. In assay [2], the IC50 of inhibition of survival of human monocytes with huCSF-1 (CellTiterGlo) is 2.4 nM. Moreover, the percentage (%) of expected binding response in assay [3] is -2%. Further, in assay [4], the percentage (%) of expected binding response is 42%. In addition, the percentage (%) of expected binding response in assay [5] is 37%. Further, the IC50 in assay [6] stood at 0.0309 mg/L. In [7], the Kd worked out at 2.73 nM, the koff is 0.00139 s⁻¹, the kon was determined as 509000 M⁻¹ s⁻¹ and the t1/2 amounted to 8.31 min.

B1: <CSF-1R>10H2.2F12 (antibody, V domains shown)
VH: QVQLKQSGPGLVQPSQSLSITCTVSGFSLTTYGINWVRLSPGKGLEWLGMIWRGGNTDYNAAFMSRLTITKDNSKNHVFFQLNSLQPDDTAIYFCAKSGGLRLYYAMDYWGQGTSVTVSS
VL: DVVMTQPPLSLPVSLGDQASISCRSSQSLVHSNGNTYLHWYLQKPGQSPKLLIYKVSNRLSGVPDRFSGSGSGTDFTLKISRVEAEDLGVYFCSQSSHVPWTFGGGTKLEIRR
notes: Mouse monoclonal antibody from a hybridoma
In [8], B1 had an equilibrium dissociation constant (Kd) of 0.78 nM, a koff of 0.0004 s⁻¹, a kon of 520000 M⁻¹ s⁻¹ and a t1/2 of 28.6 min. In assay [1], this molecule displayed a % Inhibition of growth of NIH3T3-mutant CSF-1R cells, 10 µg/ml antibody of 65% and a % survival of NIH3T3-mutant CSF-1R cells, 10 µg/ml antibody (CellTiterGlo) of 35%. In assay [2], this molecule came in with a % Inhibition of growth of NIH3T3-wtCSF-1R cells, 10 µg/ml antibody of 97%; a % inhibition of CSF-1 induced growth of BeWo cells, 10 µg/ml antibody concentration of 100%; a % survival of NIH3T3-wtCSF-1R cells, 10 µg/ml antibody (CellTiterGlo) of 3%; an IC50 CSF-1R Phosphorylation (CSF-1-induced, NIH3T3-CSF-1R cells, ELISA of lysate) of 0.0445 mg/L. In assay [2], this molecule gave an IC50 of inhibition of survival of human monocytes with huCSF-1 (CellTiterGlo) of 0.6 nM. Besides, the binding result in [9] is reported as “no binding”.

B2: <CSF-1R>9D11.2E8 (antibody, V domains shown)
VH: DVKLVESGGGLVKLGGSLKLSCAASGFTFSSYYMSWIRQTPDKRLELVAAIKTNGDNFDYPDTVKGRFTISRDNAKNTLYLQMNSLKSEDTALYYCARSQLLRYYAMDYWGQGTSVTVSS
VL: DVVMTQTPLSLPVSLGDQASISCRSSQSLVHSNGNTYLHWYLQKPGQSPKLLIYKVSNRFSGVPDRFSGSGSGTDFTLKISSVEAEDLGVYFCSQSSHVPWTFGGGTKLEIKR
notes: Mouse monoclonal antibody from a hybridoma (NMRI mice), captured by anti mouse Fc-gamma in SPR; also called deposited antibody DSM ACC2920
For B2, in [10], the “IC50 of inhibition of survival of human monocytes with huCSF-1 (CellTiterGlo)” value was 0.7 nM. In assay [8], this molecule showed a Kd of 0.77 nM, a koff of 0.00036 s⁻¹, a kon of 470000 M⁻¹ s⁻¹ and a t1/2 of 32 min. In assay [9], the binding result was “no binding”. In assay [11], the IC50 amounted to 0.01 mg/L. Besides, in assay [12], the “IC50 CSF-1R Phosphorylation (CSF-1-induced, NIH3T3-CSF-1R cells, ELISA of lysate)” value turned out to be 0.0728 mg/L.

Values taken from patent US20140336363A1 (Hoffmann-La Roche, published 2014).
